{
  "source": "paper PMC10208570",
  "about": "“Peptidomimetic antibiotics disrupt the lipopolysaccharide transport bridge of drug-resistant Enterobacteriaceae” (Science Advances, 2023)",
  "binders": {"B1": {"name": "mLptA (E. coli), LptA(25-185) E39V M47A R76A (domain or fragment)", "chain": "GAFAVTGDTDQPIHIVSDQQSLDAQGNVVTFTGNVIVTQGTIKINADKVVVTAPGGEQGKEVIDGYGKPATFYQMQDNGKPVEGHASQMHYELAKDFVVLTGNAYLQQVDSNIKGDKITYLVKEQKMQAFSDKGKRVTTVLVPSQLQDKNNKGQTPAQKKGN"}},
  "biological_target": "LptAm^Q62L (E. coli) (E. coli (ATCC 25922))",
  "assay": "fluorescence polarisation; indirect (competition) assay: unlabeled peptide or protein serially diluted into a 1:1 mixture of Lpt protein and 6-FL (2x stock 70 nM); 50 mM Na-Pi pH 7, 150 mM NaCl, 0.05% Tween 20; incubated overnight at 4°C, read at 25°C; triplicates; Ki from IC50 by Cheng-Prusoff",
  "data": [
    {"binder": "B1", "values": [
      {"measurement": "Ki", "value": 69, "unit": "nM"}
    ]}
  ]
}
